Laboratory results taken from patent US20240174741A1.

Target: ESYT2_Frag (human) (UniProt A0FGR8)
Assay: CDI HuProt native protein microarray (High-Spec cross-reactivity assay)

F635: 1860 | S-Score: 2.15 | Z-Score: 5.71
B1: CD1-M8 (antibody, V domains shown)
VH: EVQLQQSGPELVKPGASVKMSCKASGYTFTDYYIHWVKQSHGKGLEWIGYIFPNNGGNGYSQKFKGKATMTVDKSSSTAYMELRSLTSEDSAVYYCARGGYDAGFVYWGQGTLVTVSA
VL: DIVMSQSPSSLAVSAGEKVTMSCKSSQSLFNSGARKNFLAWYQQKPGQSPKLLIYWASTRESGVPDRFTGSGSGTDFTLTISSVQAEDLAVYYCKQSYYLITFGAGTKLELK
